Laboratory results from paper PMC11946911.

Key:
[1] = biological target: EcZorA (ZorA of the Escherichia coli NCTC 9026 type I Zorya system, EcZorI) (Escherichia coli NCTC 9026); test: cryo-EM structure
[2] = biological target: EcZorB (ZorB of the Escherichia coli NCTC 9026 type I Zorya system, EcZorI) (Escherichia coli NCTC 9026); test: cryo-EM structure

stoichiometry N [1]	stoichiometry N [2]	Substance
5	–	EcZorA (ZorA of the Escherichia coli NCTC 9026 type I Zorya system, EcZorI) (natural protein)
–	2	EcZorB (ZorB of the Escherichia coli NCTC 9026 type I Zorya system, EcZorI) (natural protein)
